Experiment: soluble on expression in E. coli; label from the status in PepcDB or PDB records

Row | Sequence | soluble on expression in E. coli
1 | MGSDKIHHHHHHLGFKIEAELLQAMKDLKDSVPASGSERVRNEFIQILLSELPSQGIRRLLELGLLERLIPELMPAIGFDTRSSYHDKDVFEHSLAVLDNTEPNLTLRLAALLHDIDKPNSLTVDEDGEGYCYGHASGGSEIARTILGRLNFDRKTIKAVSAIIKEHMNDFENISELSIKRLIRRVGPDNIDRLFELQLADIKGSKLSSRSPERITKTRNKCFEVLSRREPLTVHDLDISGYDLFSLGYPPGKEIGEAMDYLLDQVINNPSLNQRDTLIALLMNQ | not soluble
2 | MTPLERYQADLQRPDFFHDAAQANAVKHLQRLYDDLVAADHAKPGLFGKLLGRKSGGPVKGLYFWGGVGRGKTYLVDTFFESLPFEQKVRTHFHRFMKRVHEELKTLKGEKNPLTIIGKRFADEARVICFDEFFVSDITDAMILATLLEELFKNGVSLVATSNIVPDGLYKDGLQRARFLPAIALLKEHTEIVNVDSGVDYRLRALEQAELFHWPLSEQVEEEMARSFKALTPDCAKAQRDEALMIENREIRARLTCDDVAWFEFRELCDGPRSQNDYIELAKIFHAVLISNVEQMGVTKDDMARRFINLVDEFYDRSVKLIISAEVELKDLYSGGRLEFEFQRTLSRLLEMQSHEYLTRPHRPAAALEHHHHHH | not soluble
3 | MAKFIQKRLFASYIIRKNYYEIIGVSASATRQEIRDAFLKKTKQLHPDQSRKSSKSDSRVGWATGSSETEQFMLVKEAYDVLRNEEKRKEYDLAFSREGGFLMEATHKTQEMSTQRRNIQRAEWSADVIPDAKRNSKKVVYSHFRNPEDEYLREKQKNRM | not soluble
4 | QAALNSLGTNSVAATTAAQKIDQVATQPLMSFGVTMATFAAQNYGAHQYERIITGVKQTMWLSGSFSVAAGLIEIIWGKQLVGFFVGHQDMAVLNL | not soluble
5 | PVYAGGQVARGGQLGVLGNADIMDVPFTMTSYTEQLIEDQQAEDVGDVLLNDASVRQSSGYANASKIFVIRGLKLTTDDISYNGLYGVLPRQIISTDALERVEVFKGPNA | not soluble
6 | MSEPSEKKQKVATSSLEQLKKAGTHVVADSGDFEAISKYEPQDSTTNPSLILAASKLEKYARFIDAAVEYGRKHGKTDHEKIENAMDKILVEFGTQILKVVPGRVSTEVDARLSFDKKATVKKALHIIKLYKDAGVPKERVLIKIASTWEGIQAARELEVKHGIHCNMTLLFSFTQAVACAEANVTLISPFVGRIMDFYKALSGKDYTAETDPGVLSVKKIYSYYKRHGYATEVMAASFRNLDELKALAGIDNMTLPLNLLEQLYESTDPIENKLNSESAKEEGVEKVSFINDEPHFRYVLNEDQMATEKLSDGIRKFSADIEALYKLVEEKMLEHHHH | soluble
7 | MSLFHFVIKGTGFSSKNLQEIKVYEETLFCIDEAGVIQEIIEPDAEAYETVLAEQKEAQRFQELPQDSYLLPGFVDLHVHAPQWAQSGTALDIPLYEWLNTYTFPLESKFADLAFAQQVYDELVTQLLANGTTTALYFATIHYEASRRLAEICAEKGQRGLIGKVVMDDLNENPEYYRDQTTQQALEETERFIQEIQTLAQQTKQGVYPVVTPRFIPSCTEEALKGLGELAAKYQVHVQSHCSESDWEHQFVQERFEKNDAQALNDFGLLTEKAVMAHAGFLEEADMNLFHETGTAVAHCPISNAYFGNAVTPIAKLVHQHQVEVGLGSDLSGGFSPSLFDNLKQAVISSRMLEDGVDATKKPEVRGVKTARITVNEAFYLATAGGGQALSLPIGKLEKGYAWDVQIINTSLSQARIPKNPGESLLDIFQKILYLARPENIREVWVQGEKVHDKNLMSATKGVEGHHHHHH | soluble
8 | MTKIIKNGTIVTATDTYEAHLLIKDGKIAMIGQNLEEKGAEVIDAKGCYVFPGGIDPHTHLDMPLGGTVTKDDFESGTIAAAFGGTTTIIDFCLTNKGEPLKKAIETWHNKANGKAVIDYGFHLMISEITDDVLEELPKVLEEEGITSLKVFMAYKNVFQADDGTLYCTLLAAKELGALVMVHAENGDVIDYLTKKALADGNTDPIYHALTRPPELEGEATGRACQLTELAGSQLYVVHVTCAQAVEKIAEARNKGLDVWGETCPQYLVLDQSYLEKPNFEGAKYVWSPPLREKWHQEVLWNALKNGQLQTLGSDQCSFDFKGQKELGRGDFTKIPNGGPIIEDRVSILFSEGVKKGRITLNQFVDIVSTRIAKLFGLFPKKGTIVVGSDADLVIFDPNIERVISAETHHMAVDYNAFEGMKVTGEPVSVLCRGEFVVRDKQFVGKPGYGQYLKRAKYGT | soluble
9 | GSSPQREPQRVSHEQFRAALQLVVDPGDPRSYLDNFIKIGEGSTGIVCIATVRSSGKLVAVKKMDLRKQQRRELLFNEVVIMRDYQHENVVEMYNSYLVGDELWVVMEFLEGGALTDIVTHTRMNEEQIAAVCLAVLQALSVLHAQGVIHRDIKSDSILLTHDGRVKLSDFGFCAQVSKEVPRRKSLVGTPYWMAPELISRLPYGPEVDIWSLGIMVIEMVDGEPPYFNEPPLKAMKMIRDNLPPRLKNLHKVSPSLKGFLDRLLVRDPAQRATAAELLKHPFLAKAGPPASIVPLMRQNRTR | soluble
10 | PPNEQAVLNMYEGKRSELSQIYSNITDLEMQVSEHSLVINAIQPLDQSRKCFRMIGGVLVERTIKEVLPAVQRNKDGLEEVVRKLYETLEKKKKDLTEFEAKYKIRITKQEDNKEGGNKKEGNAQGVLVGAASSSQ | not soluble
11 | MPERLQVYKCEVCGNIVEVLNGGIGELVCCNQDMKLMSENTVDAAKEKHVPVIEKIDGGYKVKVGAVAHPMEEKHYIQWIELLADDKCYTQFLKPGQAPEAVFLIEAAKVVAREYCNIHGHWKAEN | soluble
12 | MSLSLEERERAVELYFTTPMTTAQVVEHLGYPTRQCLERWLAMDSRYAGHMAKPIIPLETRRRAVELVLGGMQQKQAAKQLGVSVGAVHGWVRAYRKGGMAALQPKNRNSAQGNKPADSRRRPSAADDDDAEALRRRVEELELENALMREVVEVVKKDPGADLRRLSNREKTLLIDRLRPAYSLRSMTCLLAIAPSSYHYHHARLGVDKYAGLRAEVAGAFADSKGRYGYRRIKAVLKTGVSEKVVRRIMAEEGLVAHVPKRRRYSSYEGETTPAPANLVDRDFTAERPNEKWLTDISEIKARDGKVYLSPMIDCFDGKIVAYTAGFSPNAELANRMLEKAASTLPGNARPLVHSDRGCHYRWPGWLGLMERFGLTRSMSAKGCSPDNAAAEGFFGRMKTESVYPEHWEKRTRDEVLILIDDYIRWYNHERIKRSLGWMSPVQYRQSQGMAEGHHHHHH | not soluble
13 | MASDPITTQEFSPRQNAVLDQALRLLVEGGEKALTTSGLARAANCSKESLYKWFGDRDGLLAAMITFQQSKVRTFEKAGDRVSAPQLADHLEVFAHDLLDVLAGDVSLALNRLAIGQASRDGSKLGDLLLERGRRQIDRRARGLIEAGRRSGYLRFDDAEEAYRSFYGLIVSDLHVRMLLGEAPDKDFSARAKKAVVAFLTLYGTEKVHSELGGKVA | soluble
14 | MSKKFNGKVCLVTGAGGNIGLATALRLAEEGTAIALLDMNREALEKAEASVREKGVEARSYVCDVTSEEAVIGTVDSVVRDFGKIDFLFNNAGYQGAFAPVQDYPSDDFARVLTINVTGAFHVLKAVSRQMITQNYGRIVNTASMAGVKGPPNMAAYGTSKGAIIALTETAALDLAPYNIRVNAISPGYMGPGFMWERQVELQAKVGSQYFSTDPKVVAQQMIGSVPMRRYGDINEIPGVVAFLLGDDSSFMTGVNLPIAGG | soluble
15 | MKIIDEHTFEGKGYHPFLITDRWQVAYLNYAEAESLEQIEKLDIHHQTDEVFILLQGKAALIGASVTDQNITYDVVNMQPGIVYNIRREVWHKIAMQPGSQVLIIENNDTHLNDFEFFELTESQKSQLRECVTKIVSLTEN | not soluble
16 | MAHHHHHHMTGADPDMLGSSAPNRPALMEPSVAPSPTSSPPATNAHANGSNSNGAGNVPLSQSTWRDSAAGSQPHGHGMPSTVRAADAPGVTEEKQAEGAFGADVHYNPATEHDFAVRGGLDGGAEGEHNSAKKIRLNNVSHFKNVPSRLNVQRQSTEADLVPCTYCGRKFLPGRVQKHEDCCIDRSKPLTARKGGALPARPSTGAATPRLAKPTPAAPAVESAATGKAKFCGGCGCKKSEPDQKFCTECGHKL | soluble

From the DeepSol protein solubility set
